Common to all, as to experiment: EMSA
(A gel shift assay detects complexes by their altered migration in electrophoresis.)

Series [1] addresses UV-DDB (DDB1-DDB2 heterodimer) (UniProt Q16531+Q92466). As to conditions: EMSA: 20 mM HEPES pH 7.5, 150 mM NaCl, 2 mM DTT (5 mM in AAG native PAGE), 5% glycerol, 0.5 mg/ml BSA, 8 nM DNA, room temperature 20-30 min, 5% native gel at ….
The target in a further series is AAG WT (MPG) (UniProt P29372). As to conditions: 60 nM AAG, 8 nM DNA, N20 of strand 1 = tetrahydrofuran abasic analogue (opposite T), EMSA: 20 mM HEPES pH 7.5, 150 mM NaCl, 2 mM DTT (5 mM in AAG native PAGE), 5% glycerol, 0.5 mg/ml BSA, room temperature 20-30 min, 5% native gel at ….
Series [2] concerns the target AAG D80 EQ (catalytically dead) E125Q (UniProt P29372). As to conditions: 60 nM AAG D80 EQ, 8 nM DNA, text says THF, legend says ϵdA37, N20 of strand 1 = 1,N6-ethenoadenine (opposite T), EMSA: 20 mM HEPES pH 7.5, 150 mM NaCl, 2 mM DTT (5 mM in AAG native PAGE), 5% glycerol, 0.5 mg/ml BSA, room temperature 20-30 min, 5% native gel at ….

Sequence of UniProt Q16531 (Q16531 whole entry, chain 1 of 2): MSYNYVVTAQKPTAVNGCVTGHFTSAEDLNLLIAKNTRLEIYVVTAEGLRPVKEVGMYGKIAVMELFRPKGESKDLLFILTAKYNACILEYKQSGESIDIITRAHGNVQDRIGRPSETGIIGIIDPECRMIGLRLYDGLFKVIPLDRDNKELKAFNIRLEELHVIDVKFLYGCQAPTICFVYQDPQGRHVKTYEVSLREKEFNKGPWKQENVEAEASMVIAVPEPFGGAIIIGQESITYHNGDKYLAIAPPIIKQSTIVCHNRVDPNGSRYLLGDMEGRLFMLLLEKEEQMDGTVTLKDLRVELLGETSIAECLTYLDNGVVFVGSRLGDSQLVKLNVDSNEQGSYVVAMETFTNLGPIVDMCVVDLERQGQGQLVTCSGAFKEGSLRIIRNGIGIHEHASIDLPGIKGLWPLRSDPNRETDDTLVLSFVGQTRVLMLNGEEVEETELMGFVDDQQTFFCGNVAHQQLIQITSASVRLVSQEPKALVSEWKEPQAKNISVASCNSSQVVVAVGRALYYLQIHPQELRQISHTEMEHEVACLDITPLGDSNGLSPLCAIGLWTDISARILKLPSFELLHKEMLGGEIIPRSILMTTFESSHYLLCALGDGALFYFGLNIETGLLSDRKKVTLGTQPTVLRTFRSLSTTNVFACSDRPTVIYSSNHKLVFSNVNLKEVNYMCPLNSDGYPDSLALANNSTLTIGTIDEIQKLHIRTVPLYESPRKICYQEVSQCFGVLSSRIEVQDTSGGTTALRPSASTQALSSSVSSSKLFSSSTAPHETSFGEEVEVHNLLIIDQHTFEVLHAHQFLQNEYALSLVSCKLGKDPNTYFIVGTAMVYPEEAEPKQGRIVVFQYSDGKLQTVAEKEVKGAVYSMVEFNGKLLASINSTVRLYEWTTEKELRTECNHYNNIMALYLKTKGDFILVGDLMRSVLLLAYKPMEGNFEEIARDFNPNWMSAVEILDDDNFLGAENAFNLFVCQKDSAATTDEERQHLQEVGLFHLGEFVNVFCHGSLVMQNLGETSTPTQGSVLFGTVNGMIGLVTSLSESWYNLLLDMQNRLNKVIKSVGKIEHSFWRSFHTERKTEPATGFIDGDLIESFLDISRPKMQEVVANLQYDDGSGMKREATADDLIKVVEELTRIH
Sequence of UniProt Q16531 (Q92466 whole entry, chain 2 of 2): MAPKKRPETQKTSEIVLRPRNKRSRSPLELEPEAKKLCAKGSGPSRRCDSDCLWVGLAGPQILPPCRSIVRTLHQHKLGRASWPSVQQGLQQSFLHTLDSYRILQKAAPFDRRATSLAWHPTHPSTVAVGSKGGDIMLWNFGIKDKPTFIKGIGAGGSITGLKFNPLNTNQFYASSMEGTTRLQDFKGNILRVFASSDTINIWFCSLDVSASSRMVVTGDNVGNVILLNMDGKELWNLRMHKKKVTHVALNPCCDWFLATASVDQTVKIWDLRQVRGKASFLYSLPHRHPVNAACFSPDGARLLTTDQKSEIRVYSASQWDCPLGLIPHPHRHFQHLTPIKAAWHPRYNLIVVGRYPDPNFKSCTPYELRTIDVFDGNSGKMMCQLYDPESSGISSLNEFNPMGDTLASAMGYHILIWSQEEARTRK

What is called Kd is the free concentration of one partner at which half of the binding sites on the other are occupied at equilibrium, for simple one-to-one binding. The low end stands for a tighter complex, the high end for a looser complex. Substance “CCGAGTCATTCCTGCAGCGNGTCCATGGGAGTCAAAT / ATTTGACTCCCATGGACTCGCTGCAGGAATGACTCGG [Hx37 (Hx:T)]” displayed a Kd in series [1] (N20 of strand 1 = hypoxanthine (deoxyinosine, opposite T)) of 8.6 nM.

Consider “CCGAGTCATTCCTGCAGCGNGTCCATGGGAGTCAAAT / ATTTGACTCCCATGGACTCGCTGCAGGAATGACTCGG [THF37]”, for which the Kd in series [1] (N20 of strand 1 = tetrahydrofuran abasic analogue (opposite T)) turned out to be 1.8 nM. The binding signal with AAG WT (MPG) was greater than 85 % DNA bound.

On to “CCGAGTCATTCCTGCAGCGNGTCCATGGGAGTCAAAT / ATTTGACTCCCATGGACTCGCTGCAGGAATGACTCGG [ϵdA37 (ϵA:T)]”, for which, in series [1] (N20 of strand 1 = 1,N6-ethenoadenine (opposite T)), the Kd came out at 6 nM. Moreover, the binding signal in series [2] was greater than 85 % DNA bound.

With undamaged 37 bp duplex (UD), the Kd in series [1] (no Mg2+, varies with preparation (32-42 nM)) came to 31.8 nM.
